Here are results for two substances from patent US9365899.

This assay has as its target yeast Fab1/PIKfyve kinase (yeast) (UniProt P34756). Nature of the assay: cell-based or functional assay.
UniProt P34756, sequence (P34756 2-2278 limits assumed): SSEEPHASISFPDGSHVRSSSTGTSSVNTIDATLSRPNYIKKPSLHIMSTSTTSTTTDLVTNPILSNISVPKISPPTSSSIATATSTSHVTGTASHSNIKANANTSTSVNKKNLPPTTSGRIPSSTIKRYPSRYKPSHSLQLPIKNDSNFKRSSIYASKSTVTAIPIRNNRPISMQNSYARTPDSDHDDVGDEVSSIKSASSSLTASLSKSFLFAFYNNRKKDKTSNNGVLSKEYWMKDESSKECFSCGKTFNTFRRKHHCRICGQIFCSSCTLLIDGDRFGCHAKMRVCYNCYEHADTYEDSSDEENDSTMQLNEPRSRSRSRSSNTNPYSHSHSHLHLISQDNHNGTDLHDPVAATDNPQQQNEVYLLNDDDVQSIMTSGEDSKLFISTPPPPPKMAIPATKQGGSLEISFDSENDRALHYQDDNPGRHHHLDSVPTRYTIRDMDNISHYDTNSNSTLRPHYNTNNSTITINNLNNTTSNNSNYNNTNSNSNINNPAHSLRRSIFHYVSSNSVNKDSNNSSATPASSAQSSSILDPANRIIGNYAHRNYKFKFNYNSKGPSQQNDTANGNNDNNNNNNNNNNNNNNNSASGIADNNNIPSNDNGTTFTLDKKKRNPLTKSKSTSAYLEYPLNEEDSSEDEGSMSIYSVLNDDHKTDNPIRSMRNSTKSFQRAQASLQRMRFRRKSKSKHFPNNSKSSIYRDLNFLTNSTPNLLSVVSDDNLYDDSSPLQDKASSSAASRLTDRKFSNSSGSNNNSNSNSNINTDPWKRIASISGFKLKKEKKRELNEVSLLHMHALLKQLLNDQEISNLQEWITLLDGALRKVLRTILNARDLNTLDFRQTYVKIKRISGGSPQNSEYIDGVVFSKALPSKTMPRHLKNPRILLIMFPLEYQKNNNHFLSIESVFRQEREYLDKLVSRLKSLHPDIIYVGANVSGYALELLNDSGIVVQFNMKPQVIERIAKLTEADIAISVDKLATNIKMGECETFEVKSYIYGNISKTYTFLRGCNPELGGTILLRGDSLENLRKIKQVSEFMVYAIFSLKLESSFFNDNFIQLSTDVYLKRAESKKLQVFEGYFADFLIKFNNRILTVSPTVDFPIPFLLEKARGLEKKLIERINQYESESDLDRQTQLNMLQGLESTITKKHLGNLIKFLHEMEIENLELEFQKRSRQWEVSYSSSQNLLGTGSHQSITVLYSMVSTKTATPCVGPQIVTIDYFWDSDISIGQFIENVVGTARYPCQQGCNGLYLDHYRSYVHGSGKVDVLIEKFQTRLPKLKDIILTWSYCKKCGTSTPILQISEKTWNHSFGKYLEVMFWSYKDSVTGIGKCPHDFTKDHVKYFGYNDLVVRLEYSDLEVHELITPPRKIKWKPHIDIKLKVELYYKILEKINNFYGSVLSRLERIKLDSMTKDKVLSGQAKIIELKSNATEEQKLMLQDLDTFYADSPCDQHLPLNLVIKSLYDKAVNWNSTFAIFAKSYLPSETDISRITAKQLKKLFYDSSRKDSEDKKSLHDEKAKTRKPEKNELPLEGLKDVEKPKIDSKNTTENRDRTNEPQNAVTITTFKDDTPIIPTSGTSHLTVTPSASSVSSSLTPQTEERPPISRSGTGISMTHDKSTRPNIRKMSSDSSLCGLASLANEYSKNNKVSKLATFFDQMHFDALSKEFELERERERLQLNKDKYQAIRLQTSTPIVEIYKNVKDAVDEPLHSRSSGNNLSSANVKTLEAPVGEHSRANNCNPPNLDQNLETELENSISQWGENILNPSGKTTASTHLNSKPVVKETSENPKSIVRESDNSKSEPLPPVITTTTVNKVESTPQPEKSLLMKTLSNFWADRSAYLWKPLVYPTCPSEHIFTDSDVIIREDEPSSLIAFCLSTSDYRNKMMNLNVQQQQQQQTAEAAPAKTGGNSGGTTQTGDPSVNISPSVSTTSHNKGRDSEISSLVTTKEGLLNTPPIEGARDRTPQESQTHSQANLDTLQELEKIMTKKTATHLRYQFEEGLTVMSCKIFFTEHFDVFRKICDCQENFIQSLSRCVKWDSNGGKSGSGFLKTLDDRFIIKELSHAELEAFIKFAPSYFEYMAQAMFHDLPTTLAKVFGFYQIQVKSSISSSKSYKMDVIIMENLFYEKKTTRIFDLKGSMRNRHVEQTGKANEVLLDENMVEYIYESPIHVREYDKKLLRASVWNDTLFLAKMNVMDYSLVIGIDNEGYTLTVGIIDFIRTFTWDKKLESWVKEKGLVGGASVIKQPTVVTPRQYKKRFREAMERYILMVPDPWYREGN

Turning to “yeast FIG4 protein with the Ile>Thr mutation corresponding to human I41T (from UniProt P42837 1-879) (enzyme)”, the increase in intracellular PI(3,5)P2 concentration after hyperosmotic shock turned out to be 4 fold.

The substance “yeast FIG4 protein, wildtype (from UniProt P42837 1-879)” registered an increase in intracellular PI(3,5)P2 concentration after hyperosmotic shock of 10 fold.
